Molecular target: TβR-II/TGF-β3 binary complex (UniProt P37173)
Experiment: SPR

Kd: 310 nM
Substance: TβR-I 7–91 (domain or fragment)
